{"source": "patent US20110165066A1", "about": "(AbbVie / Abbott, published 2011)", "binders": {"B1": {"name": "9C11 (antibody, V domains shown)", "VH": "QVRLQQPGAELVRPGASVKLSCKASGYTFTSSWIHWVNQRPGQGLEWIGMIHPSDSETRLNQKFKDKATLTVDKSSSTAYMQLSSPTSEDSAVYYCASTATDFDYWGQGTTLTVSS", "VL": "DVVLTQTPLSLPVNIGDQASISCRSTQTLLNSDGFTYLDWYLQKPGQSPQLLIYLVSNRFSGVPDRFSGSGSGTDFTLKISRVEAEDLGVYYCFQNNYLPLTFGAGTKLELKR"}}, "key": {"human IL-13 wild type [1]": {"biological_target": "T1, human IL-13 wild type (human, UniProt P35225 35-146)", "T1 construct": "also called h IL-13; h IL-13 wt", "T1 sequence (P35225 other isoform, or with tags, fused parts or gaps limits assumed)": "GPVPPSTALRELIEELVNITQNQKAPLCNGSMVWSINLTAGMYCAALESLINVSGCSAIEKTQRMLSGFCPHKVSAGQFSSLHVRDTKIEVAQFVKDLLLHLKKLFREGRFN", "assay": "SPR (Biacore), mAb captured, IL-13 as analyte"}, "[2]": {"biological_target": "T2, human IL-13 variant (R130Q) (human, UniProt P35225 35-146)", "T2 construct": "called R110Q in the assay descriptions (mature numbering); also called h IL-13v; hIL-13v", "T2 sequence (P35225 35-146 limits assumed, stated change not applied)": "as the sequence (P35225 other isoform, or with tags, fused parts or gaps limits assumed) above, with R110Q counted along it", "assay": "SPR (Biacore), mAb captured, IL-13 as analyte"}, "human IL-13 wild type [3]": {"biological_target": "T1, human IL-13 wild type", "assay": "cell-based or functional assay"}, "[4]": {"biological_target": "T2, human IL-13 variant (R130Q)", "assay": "cell-based or functional assay"}, "cynomolgus IL-13": {"biological_target": "cynomolgus IL-13 (cynomolgus, UniProt Q0PW92 21-132)", "sequence (Q0PW92 entry or part of it)": "as the sequence (P35225 other isoform, or with tags, fused parts or gaps limits assumed) above, with G1S, R10K, M42V, S67N, H83R, L100V, R110Q counted along it", "assay": "cell-based or functional assay"}, "mouse IL-13": {"biological_target": "T3, mouse IL-13 (mouse, UniProt P20109 26-131, limits assumed)", "T3 construct": "also called mIL-13; murine IL-13", "T3 sequence (looked up)": "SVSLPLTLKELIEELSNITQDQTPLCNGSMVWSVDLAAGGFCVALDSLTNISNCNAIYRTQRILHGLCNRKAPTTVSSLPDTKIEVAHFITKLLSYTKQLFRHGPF", "assay": "indirect ELISA, captured mAb, biotinylated mouse IL-13"}, "human IL-13 wild type [5]": {"biological_target": "T1, human IL-13 wild type", "assay": "blocking of IL-13 binding to IL-13Rα2, receptor binding assays"}}, "data": [{"binder": "B1", "values": [{"measurement": "Kd", "setting": "human IL-13 wild type [1]", "result": 0.112, "unit": "nM"}, {"measurement": "koff", "setting": "human IL-13 wild type [1]", "result": "6.5e-05", "unit": "s⁻¹"}, {"measurement": "kon", "setting": "human IL-13 wild type [1]", "result": 579000, "unit": "M⁻¹ s⁻¹"}, {"measurement": "Kd", "setting": "[2]", "result": 0.0921, "unit": "nM"}, {"measurement": "koff", "setting": "[2]", "result": "5.86e-05", "unit": "s⁻¹"}, {"measurement": "kon", "setting": "[2]", "result": 637000, "unit": "M⁻¹ s⁻¹"}, {"measurement": "Average IC50, IL-13-induced TARC production by A-549 cells", "setting": "human IL-13 wild type [3]", "result": 0.106, "unit": "nM"}, {"measurement": "Average IC50, IL-13-induced TARC production by A-549 cells", "setting": "[4]", "result": 0.17, "unit": "nM"}, {"measurement": "Average IC50, IL-13-induced TARC production by A-549 cells", "setting": "cynomolgus IL-13", "result": 0.64, "unit": "nM"}, {"measurement": "binding result", "setting": "mouse IL-13", "result": "no binding (tested: 0.1 to 100 ng/ml)"}, {"measurement": "IC50", "setting": "human IL-13 wild type [5]", "result": "> 10", "unit": "nM"}]}]}
